Reference: article PMC9121654 (Biochemical and Biophysical Research Communications, 2022)

Biological target: the molecule itself
Assay: SEC

B1: GYINVG-ZYG11B485-728 fusion protein (other)
chain: GYINVGAQLGTELFIVRQLLQIVKQKTNQNSVDTTLKFTLSALWNLTDESPTTCRHFIENQGLELFMRVLESFPTESSIQQKVLGLLNNIAEVQELHSELMWKDFIDHISSLLHSVEVEVSYFAAGIIAHLISRGEQAWTLSRSQRNSLLDDLHSAILKWPTPECEMVAYRSFNPFFPLLGCFTTPGVQLWAVWAMQHVCSKNPSRYCSMLIEEGGLQHLYNIKDHEHTDPHVQQIAVAILDSLEKHIVR
- stoichiometry N: 2
